Results as given in patent US20100092561A1 (published 2010).
Starred links: 1 amine or outer side, 2 acyl side, 3 side chain; linkers in the order of their positions; H or OH if unused. Non-standard residues stand in square brackets, D forms with d. No end group written: not given here. βMeF(S) = S-β-methyl-L-phenylalanine, (2S,3S)-β-methylphenylalanine, C[C@@H](c1ccccc1)[C@H](N[*:1])C(=O)[*:2]; Phe(3R-Me) = C[C@H](c1ccccc1)[C@H](N)C(=O)O

Molecular target: NK1 receptor (rabbit)
Assay: cell-based or functional assay

Row | biological activity relative to SP (rabbit iris sphincter contraction) | concentration at half maximal contraction (EC50), rabbit iris sphincter muscle [nM] | Binder
1 | 10 fold reduction |  | RPKPQQF[βMeF(S)]GLM (not fully specified (C-terminus); ends and bridges not checked) [8S-(βMeF)SP]
2 | 4 fold enhancement | 0.15 | RPKPQQF[Phe(3R-Me)]GLM (not fully specified (C-terminus); ends and bridges not checked) [8R-(βMeF)SP]
3 | 10 fold reduction | 10 | RPKPQQ[Phe(3R-Me)][Phe(3R-Me)]GLM (not fully specified (C-terminus); ends and bridges not checked) [7R,8R-(βMeF)2SP]
